B1: PYD-deleted human NLRP3 (NLRP3_(ΔPYD)), from the construct FLAG.6His.MBP.TEV.CfaC.NLRP3_130.K131F.M132N-1036 (domain or fragment, UniProt Q96P20 130-1036, looked up)
chain: CFNKKDYRKKYRKYVRSRFQCIEDRNARLGESVSLNKRYTRLRLIKEHRSQQEREQELLAIGKTKTCESPVSPIKMELLFDPDDEHSEPVHTVVFQGAAGIGKTILARKMMLDWASGTLYQDRFDYLFYIHCREVSLVTQRSLGDLIMSCCPDPNPPIHKIVRKPSRILFLMDGFDELQGAFDEHIGPLCTDWQKAERGDILLSSLIRKKLLPEASLLITTRPVALEKLQHLLDHPRHVEILGFSEAKRKEYFFKYFSDEAQARAAFSLIQENEVLFTMCFIPLVCWIVCTGLKQQMESGKSLAQTSKTTTAVYVFFLSSLLQPRGGSQEHGLCAHLWGLCSLAADGIWNQKILFEESDLRNHGLQKADVSAFLRMNLFQKEVDCEKFYSFIHMTFQEFFAAMYYLLEEEKEGRTNVPGSRLKLPSRDVTVLLENYGKFEKGYLIFVVRFLFGLVNQERTSYLEKKLSCKISQQIRLELLKWIEVKAKAKKLQIQPSQLELFYCLYEMQEEDFVQRAMDYFPKIEINLSTRMDHMVSSFCIENCHRVESLSLGFLHNMPKEEEEEEKEGRHLDMVQCVLPSSSHAACSHGLVNSHLTSSFCRGLFSVLSTSQSLTELDLSDNSLGDPGMRVLCETLQHPGCNIRRLWLGRCGLSHECCFDISLVLSSNQKLVELDLSDNALGDFGIRLLCVGLKHLLCNLKKLWLVSCCLTSACCQDLASVLSTSHSLTRLYVGENALGDSGVAILCEKAKNPQCNLQKLGLVNSGLTSVCCSALSSVLSTNQNLTHLYLRGNTLGDKGIKLLCEGLLHPDCKLQVLELDNCNLTSHCCWDLSTLLTSSQSLRKLSLGNNDLGDLGVMMFCEVLKQQSCLLQNLGLSEMYFNYETKSALETLQEEKPELTVVFEPSW
notes: human NLRP3 (UniProt Q96P20), residues 130-1036 (NACHT and LRR, PYD deleted) with K131F and M132N next to the CfaC intein fragment; The same protomer forms an octamer (with ATP, no MCC950), a hexamer (with ATP and MCC950) and a back-to-back dimer (with NEK7, ATP and MCC950); The second construct, MBP.TEV.NLRP3_130_1036, was used only for the ATPase and nanoDSF assays; also called …

Tests used:
[1] = target: B1; test: cryo-EM structure; NLRP3_(ΔPYD) with ATP, MCC950 (10 fold molar excess) and NEK7_(K63M/K64M) (2 fold molar excess); Superdex 200 peak fractions; C2 symmetry imposed; closed NEK7/NLRP3 dimer; conditions: both partners purified
[2] = target: the molecule itself; test: as above
[3] = target: the molecule itself; test: cryo-EM structure; NLRP3_(ΔPYD) with ATP, without MCC950; applied to grids immediately after SEC (Superose 6, 25 mM HEPES pH 7.4, 0.4 M NaCl, 0.2% CHAPS, 0.2 mM TCEP); D2 symmetry imposed; open octamer
[4] = target: the molecule itself; test: cryo-EM structure; NLRP3_(ΔPYD) with ATP and MCC950; D3 symmetry imposed; closed hexamer, seen in the dataset without NEK7 and as one of two populations in the dataset with NEK7

Binder	binding result [1]	stoichiometry N [2]	stoichiometry N [3]	stoichiometry N [4]
human NEK7 with kinase mutations K63M/K64M (NEK7_(K63M/K64M)) (enzyme, human NEK7 (UniProt Q8TDX7) with kinase mutations K63M/K64M; also called NIMA-related kinase 7; 6His.SUMO.NEK7_(K63M/K64M); source: E. coli BL21(DE3), purified (HisPur Ni resin, Ulp1 cleavage, HisTrap flow-through, Superdex 200); not shown: His6, N-terminal, cleaved; SUMO, N-terminal, cleaved) not shown	binds	–	–	–
B1	–	2	8	6

Source: paper PMC10850481, “Structural basis for the oligomerization-facilitated NLRP3 activation” (Nature Communications, 2024)
